Consider one sequence from patent US9598677B2, “Use of human biliverdin reductase and fragments thereof for the treatment of protein kinase C-delta and ERK related conditions” (University of Rochester, priority 2009, dated 2017).

Ends that are not written are not given here. * marks the point of attachment. Myristoyl = CCCCCCCCCCCCCC(=O)*

Experiment [1] addresses T1, PKC-δ (Homo sapiens, UniProt Q05655). Kind of experiment: PMA-induced PKC-δ membrane translocation, confocal microscopy. Also noted: inserting the open reading frame of PKC-δ into the plasmid pDsRed2-C1; expressed in transfected cells; host or cells: 293A. Conditions: 10 μM myristoylated peptide, PMA 15 min, FIG. 5E. In kind it is cell-based. The method, then:
Confocal microscopy: Experimental protocols were based on those described by Edwards et al., “Carboxyl-Terminal Phosphorylation Regulates the Function and Subcellular Localization of Protein Kinase C betall,” J. Biol. Chem. 274:6461-6468 (1999), which is hereby incorporated by reference in its entirety. 293A cells were grown in a chamber slide system (Nalge-Nunc International Corp., Naperville, Ill.). Cells were transfected with pEGFP-hBVR and/or the plasmid expressing Ds2-Red-PKC-δ fusion protein. After a 24 h starvation period, cells were fixed for 10 min in 4% Para-formaldehyde in PBS and permeabilized with 1% Triton X-100 in PBS. The cells were mounted with Vectashield (Vector Laboratories, Inc. Burlingame, Calif.), containing DAPI to visualize the nuclei. Non-transfected cells were permeabilized as above, treated with 1:150 dilution of polyclonal anti-PKC-δ antibodies, washed, blocked, and then treated with polyclonal anti-hBVR antibodies. The PBS-washed cells were then treated with Rhodamine-red-conjugated donkey anti-rabbit IgG antibodies (Jackson ImmunoResearch, West Grove, Pa.) for 30 min, followed by mounting. A Leica TCS SP (model DMRE) confocal microscope was used (Maines et al., “Human Biliverdin Reductase: A Previously Unknown Activator of Protein Kinase C-βII,” J. Biol. Chem. 282:8110-8122 (2007), which is hereby incorporated by reference in its entirety).

In experiment [2] the target is T1, PKC-δ. Kind of experiment: PKC-δ activity assay in situ in 293A cells. The following applies: myristoylated peptide, last 2 h of starvation, FIG. 5B. In kind it is cell-based. Also noted: The human PKC-δ open reading frame was also cloned in the same vectors; expressed in transfected cells; host or cells: HEK 293A. The method, then:
(§1) The PKC-δ activity assay in situ was performed by a modification of procedures detailed by Williams and Schrier (Williams et al., Glucose-Induced Protein Kinase C Activity Regulates Arachidonic Acid Release and Eicosanoid Production by Cultured Glomerular Mesangial Cells,” J. Clin. Invest. 92:2889-2896 (1993), which is hereby incorporated by reference in its entirety). Cells were seeded into 48-well plates and transfected with 0.1 μg/well pcDNA3-hBVR. After 24 h, the medium was replaced with a starvation medium (0.1% serum) and incubation continued for another 24 h to synchronize cells. In some wells, PKC inhibitor Rottlerin (20 μM) was added 30 min before addition of PMA (100 nM) for 15 min. In some wells, hBVR-derived peptides were introduced to cells in their myristoylated form. Cells were washed with medium and incubated for 10 min at 30° C. in 50 μl of kinase assay buffer (137 mM NaCl, 5.4 mM KCl, 10 mM MgCl2, 0.3 mM Na2HPO4, 0.4 mM KH2PO4, 25 mM β-glycerophosphate, 5.5 mM D-glucose, 5 mM EGTA, 1 mM CaCl2, 20 mM HEPES (pH 7.2), 50 μg/ml digitonin, 120 μg/ml of PKC-δ specific substrate (ARRKRKGSFFGG; SEQ ID NO: 52) and 100 μM ATP labeled with 10 μCi/ml [γ-^32P]-ATP). The reaction was stopped with the addition of 25 μl of ice-cold 30% (wt/vol) TCA. The TCA-soluble fraction samples were transferred to p81 phospho-cellulose filters. […]

Another experiment concerns the target T2, PKC-βII (Homo sapiens, UniProt P05771).
T2 construct: purchased Calbiochem
Kind of experiment: PKC-βII kinase assay in vitro. In kind it is biochemical. The following applies: MBP substrate, concentrations that markedly inhibited PKC-δ, FIG. 5D. Here is the method: Measurement of PKC-β and PKC-ζ activities. Recombinant PKC-βII (Calbiochem) was assayed in vitro in 20 mM HEPES pH 7.2, 15 mM MgCl2, 0.2 mM CaCl2, 1 mM DTT, 25 mM β-glycerophosphate, 50 μg/ml phosphatidylserine and 5 μg/ml diacylglycerol, using 12.5 μM MBP as substrate, using 5 ng of enzyme per 50 μl reaction. 100 μM ATP (containing [γ^32P]-ATP (as above) was used to start the reaction, and incorporation was determined using p81 filter binding (Maines et al., “Human Biliverdin Reductase: A Previously Unknown Activator of Protein Kinase C-βII,” J. Biol. Chem. 282:8110-8122 (2007), which is hereby incorporated by reference in its entirety). Similarly, recombinant PKC-ζ(Millipore) was assayed in 20 mM MOPS pH 7.2, 15 mM MgCl2, 0.2 mM EDTA, with 12.5 μM MBP as substrate, again using 5 ng of enzyme per 50 μl reaction (Lerner-Marmarosh et al., “Regulation of TNF-alpha-Activated PKC-zeta Signaling By the Human Biliverdin Reductase: Identification of Activating and Inhibitory Domains of the Reductase,” FASEB J. 21:3949-3962 (2007), which is hereby incorporated by reference in its entirety). Otherwise, reaction conditions were as for PKC-βII.

Experiment [3] addresses T3, PKC-δ (Homo sapiens, UniProt Q05655, DEL151-160).
T3 construct: The human PKC-δ open reading frame was also cloned in the same vectors; expressed in transfected cells; host or cells: HEK 293A
Kind of experiment: PKC-δ activity assay in situ in 293A cells. In kind it is cell-based. The following applies: myristoylated peptide, FIG. 5C. The method, then:
as §1

T1 sequence (Q05655 whole entry, the tested form may be a part): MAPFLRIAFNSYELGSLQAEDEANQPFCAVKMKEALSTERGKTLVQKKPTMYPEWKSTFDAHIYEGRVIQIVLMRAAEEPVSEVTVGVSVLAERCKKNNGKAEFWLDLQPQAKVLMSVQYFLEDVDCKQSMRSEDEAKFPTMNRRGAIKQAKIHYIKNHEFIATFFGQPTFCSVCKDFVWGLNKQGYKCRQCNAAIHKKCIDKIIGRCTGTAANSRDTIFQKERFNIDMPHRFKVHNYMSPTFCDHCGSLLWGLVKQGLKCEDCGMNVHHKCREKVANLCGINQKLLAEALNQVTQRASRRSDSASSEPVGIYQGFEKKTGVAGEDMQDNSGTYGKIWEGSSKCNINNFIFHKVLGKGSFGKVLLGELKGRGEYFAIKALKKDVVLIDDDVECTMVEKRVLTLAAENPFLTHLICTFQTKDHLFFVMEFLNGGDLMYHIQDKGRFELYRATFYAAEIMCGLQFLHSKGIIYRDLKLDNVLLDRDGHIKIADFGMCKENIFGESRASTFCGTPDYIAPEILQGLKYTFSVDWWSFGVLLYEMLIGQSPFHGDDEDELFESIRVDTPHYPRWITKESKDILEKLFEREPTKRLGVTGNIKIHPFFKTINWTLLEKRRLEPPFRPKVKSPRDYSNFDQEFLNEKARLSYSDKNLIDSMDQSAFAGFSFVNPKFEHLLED
T3 sequence (Q05655 with tags, fused parts or gaps DEL151-160): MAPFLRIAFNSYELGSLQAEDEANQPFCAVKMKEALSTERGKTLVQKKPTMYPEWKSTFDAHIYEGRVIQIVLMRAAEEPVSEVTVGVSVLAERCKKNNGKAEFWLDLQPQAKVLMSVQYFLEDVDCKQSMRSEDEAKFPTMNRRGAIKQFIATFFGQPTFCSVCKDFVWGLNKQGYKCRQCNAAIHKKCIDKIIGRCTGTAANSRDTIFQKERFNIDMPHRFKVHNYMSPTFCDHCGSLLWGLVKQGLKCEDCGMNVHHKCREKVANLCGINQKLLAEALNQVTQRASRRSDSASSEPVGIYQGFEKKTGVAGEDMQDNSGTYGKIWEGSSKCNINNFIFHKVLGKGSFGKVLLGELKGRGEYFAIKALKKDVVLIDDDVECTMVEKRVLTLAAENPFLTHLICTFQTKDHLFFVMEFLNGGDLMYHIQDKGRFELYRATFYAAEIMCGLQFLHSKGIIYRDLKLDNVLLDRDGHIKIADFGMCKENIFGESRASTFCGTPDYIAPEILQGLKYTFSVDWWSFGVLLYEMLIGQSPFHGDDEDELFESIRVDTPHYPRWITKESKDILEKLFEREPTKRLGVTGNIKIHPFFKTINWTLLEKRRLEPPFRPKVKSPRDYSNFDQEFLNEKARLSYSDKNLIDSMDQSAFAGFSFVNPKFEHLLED
T2 sequence (P05771 1-673 isoform P05771-2): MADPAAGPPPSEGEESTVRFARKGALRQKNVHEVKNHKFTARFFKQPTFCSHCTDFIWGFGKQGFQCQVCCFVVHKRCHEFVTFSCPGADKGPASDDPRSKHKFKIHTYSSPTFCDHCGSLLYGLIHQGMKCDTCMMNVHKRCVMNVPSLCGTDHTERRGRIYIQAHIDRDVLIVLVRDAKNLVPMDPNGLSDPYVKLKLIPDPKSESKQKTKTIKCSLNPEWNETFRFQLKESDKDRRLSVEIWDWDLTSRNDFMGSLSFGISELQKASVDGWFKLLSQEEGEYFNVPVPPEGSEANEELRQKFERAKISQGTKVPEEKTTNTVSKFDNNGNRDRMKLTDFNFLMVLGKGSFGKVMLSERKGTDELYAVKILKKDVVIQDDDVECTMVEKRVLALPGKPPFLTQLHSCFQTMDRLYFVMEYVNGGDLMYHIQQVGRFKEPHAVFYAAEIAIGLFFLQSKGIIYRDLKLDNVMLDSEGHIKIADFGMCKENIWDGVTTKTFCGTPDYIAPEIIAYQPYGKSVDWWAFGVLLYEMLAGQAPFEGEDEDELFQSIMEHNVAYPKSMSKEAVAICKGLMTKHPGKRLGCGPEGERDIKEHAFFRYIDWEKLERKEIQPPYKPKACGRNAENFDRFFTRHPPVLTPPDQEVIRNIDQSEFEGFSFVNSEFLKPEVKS

As to KRNRYLSF (Myristoyl-KRNRYLSF), the “PKC-δ translocation to the cell membrane upon PMA” value with PKC-δ [1] is “effectively inhibited”. Further, the “PKC-δ activity in cells transfected with pcDNA-PKC-δ and stimulated with PMA” value with PKC-δ [2] is on record as “inhibitory activity”. In the experiment with PKC-βII, the “effect of inhibitory peptide on PKC-βII activity” value is “essentially unaffected”. Further, the “activity of constitutively active PKC-δ in cells” value with PKC-δ [3] is given as “effective inhibitor”.
